{"source": "patent US20070191277", "key": {"[1]": {"target": "T1, rPAI-123 (recombinant truncated porcine plasminogen activator inhibitor-1 isoform; RCL deleted, partial deletion of the heparin-binding domain)", "T1 chain": "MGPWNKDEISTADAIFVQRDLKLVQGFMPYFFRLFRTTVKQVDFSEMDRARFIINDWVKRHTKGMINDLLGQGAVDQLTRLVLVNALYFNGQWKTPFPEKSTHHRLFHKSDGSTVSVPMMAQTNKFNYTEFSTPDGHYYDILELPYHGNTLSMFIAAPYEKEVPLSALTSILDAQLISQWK"}, "[2]": {"target": "T2, rPAI-1Δ23 (recombinant truncated porcine plasminogen activator inhibitor-1 isoform; RCL deleted, heparin-binding domain deleted)", "T2 chain": "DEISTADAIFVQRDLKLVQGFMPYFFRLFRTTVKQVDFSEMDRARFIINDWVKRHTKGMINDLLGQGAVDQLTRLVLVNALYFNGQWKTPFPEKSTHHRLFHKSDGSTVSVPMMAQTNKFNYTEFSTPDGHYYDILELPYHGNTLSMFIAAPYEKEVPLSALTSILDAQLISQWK"}}, "data": [{"protein": "plasminogen (protein) EPLDDYVNTQGASLFSVTKKQLGAGSIEECAAKCEEDEEFTCRAFQYHSKEQQCVIMAENRKSSIIIRMRDVVLFEKKVYLSECKTGNGKNYRGTMSKTKNGITCQKWSSTSPHRPRFSPATHPSEGLEENYCRNPDNDPQGPWCYTTDPEKRYDYCDILECEEECMHCSGENYDGKISKTMSGLECQAWDSQSPHAHGYIPSKFPNKNLKKNYCRNPDRELRPWCFTTDPNKRWELCDIPRCTTPPPSSGPTYQCLKGTGENYRGNVAVTVSGHTCQHWSAQTPHTHNRTPENFPCKNLDENYCRNPDGKRAPWCHTTNSQVRWEYCKIPSCDSSPVSTEQLAPTAPPELTPVVQDCYHGDGQSYRGTSSTTTTGKKCQSWSSMTPHRHQKTPENYPNAGLTMNYCRNPDADKGPWCFTTDPSVRWEYCNLKKCSGTEASVVAPPPVVLLPDVETPSEEDCMFGNGKGYRGKRATTVTGTPCQDWAAQEPHRHSIFTPETNPRAGLEKNYCRNPDGDVGGPWCYTTNPRKLYDYCDVPQCAAPSFDCGKPQVEPKKCPGRVVGGCVAHPHSWPWQVSLRTRFGMHFCGGTLISPEWVLTAAHCLEKSPRPSSYKVILGAHQEVNLEPHVQEIEVSRLFLEPTRKDIALLKLSSPAVITDKVIPACLPSPNYVVADRTECFITGWGETQGTFGAGLLKEAQLPVIENKVCNRYEFLNGRVQSTELCAGHLAGGTDSCQGDSGGPLVCFEKDKYILQGVTSWGLGCARPNKPGVYVRVSRFVTWIEGVMRNN", "values": [{"measurement": "plasminogen cleavage (immunoblot probed for mini-plasminogen)", "setting": "[1]", "result": "the rPAI-123 recombinant protein cleaves plasminogen"}, {"measurement": "plasminogen cleavage (immunoblot probed for mini-plasminogen)", "setting": "[2]", "result": "the rPAI-1Δ23 protein did not cleave plasminogen, even when increasing concentrations of the recombinant protein were added"}]}]}
